Measured values from publication PMC9482650, “Quantitative fragmentomics allow affinity mapping of interactomes” (Nature Communications, 2022).

T1: RADIL, Q96JH8
T1 sequence (Q96JH8 971-1071, limits assumed, looked up): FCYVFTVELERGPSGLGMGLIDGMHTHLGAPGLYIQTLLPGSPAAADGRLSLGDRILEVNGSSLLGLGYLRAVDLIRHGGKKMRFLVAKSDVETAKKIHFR

T2: APBA2_2, Q99767
T2 sequence (Q99767 654-744, limits assumed, looked up): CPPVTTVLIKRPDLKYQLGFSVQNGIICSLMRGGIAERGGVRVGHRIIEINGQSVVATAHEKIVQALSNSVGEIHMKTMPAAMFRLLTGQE

T3: SHANK1, Q9Y566
T3 sequence (Q9Y566 658-767, limits assumed, looked up): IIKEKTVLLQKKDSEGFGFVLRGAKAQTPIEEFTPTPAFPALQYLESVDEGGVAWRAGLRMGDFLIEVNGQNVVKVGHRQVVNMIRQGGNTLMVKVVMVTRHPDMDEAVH

T4: PDZD2_2, O15018
T4 sequence (O15018 329-429, limits assumed, looked up): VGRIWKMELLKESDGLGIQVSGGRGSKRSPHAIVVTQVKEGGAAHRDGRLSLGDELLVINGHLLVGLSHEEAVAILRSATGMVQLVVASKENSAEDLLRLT

T5: ARHGAP21, Q5T5U3
T5 sequence (Q5T5U3 45-169, limits assumed, looked up): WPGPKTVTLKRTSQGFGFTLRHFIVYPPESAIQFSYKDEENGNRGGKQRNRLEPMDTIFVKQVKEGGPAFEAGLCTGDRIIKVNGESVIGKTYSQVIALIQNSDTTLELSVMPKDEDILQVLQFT

T6: SNTB1, Q13884
T6 sequence (Q13884 107-205, limits assumed, looked up): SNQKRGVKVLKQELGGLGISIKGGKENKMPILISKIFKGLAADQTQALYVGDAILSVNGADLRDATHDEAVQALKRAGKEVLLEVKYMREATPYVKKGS


Columns and labels:
Assay in all cases: holdup assay
Design in all cases: key: below the threshold = too weak to quantify, mostly under pKd 3.1 to 4
Conditions in all cases: plain residues with an end cap or a label only (N-terminal biotin on a linker: ado-ado)
DLG1_2, Q12959 = target: DLG1_2, Q12959
Chain of DLG1_2, Q12959 (Q12959 314-412): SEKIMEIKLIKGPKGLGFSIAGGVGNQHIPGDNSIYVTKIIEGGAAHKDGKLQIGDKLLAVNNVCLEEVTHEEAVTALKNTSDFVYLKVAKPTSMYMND

MAGI2_5, Q86UL8 = target: MAGI2_5, Q86UL8
Chain of MAGI2_5, Q86UL8 (Q86UL8 915-1017): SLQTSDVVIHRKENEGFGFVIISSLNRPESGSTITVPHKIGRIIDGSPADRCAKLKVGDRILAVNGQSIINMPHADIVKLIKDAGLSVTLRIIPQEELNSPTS

Inadl_1, Q8NI35 = target: Inadl_1, Q8NI35
Chain of Inadl_1, Q8NI35 (Q8NI35 113-229): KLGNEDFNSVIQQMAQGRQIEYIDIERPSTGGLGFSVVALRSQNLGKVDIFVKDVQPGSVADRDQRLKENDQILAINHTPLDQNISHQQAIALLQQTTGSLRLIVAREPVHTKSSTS

PDLIM1, O00151 = target: PDLIM1, O00151
Chain of PDLIM1, O00151 (O00151 1-87): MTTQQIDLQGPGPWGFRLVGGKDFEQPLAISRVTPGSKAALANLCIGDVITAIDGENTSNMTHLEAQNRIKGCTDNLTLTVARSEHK

GIPC2, Q8TF65 = target: GIPC2, Q8TF65
Chain of GIPC2, Q8TF65 (Q8TF65 112-203): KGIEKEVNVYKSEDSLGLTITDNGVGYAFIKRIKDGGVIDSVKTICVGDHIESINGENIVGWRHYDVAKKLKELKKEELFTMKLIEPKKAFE

GRID2IP_2, A4D2P6 = target: GRID2IP_2, A4D2P6
Chain of GRID2IP_2, A4D2P6 (A4D2P6 272-370): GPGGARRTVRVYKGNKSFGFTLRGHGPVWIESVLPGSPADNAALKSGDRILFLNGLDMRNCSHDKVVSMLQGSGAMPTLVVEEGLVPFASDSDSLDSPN

LNX1_2, Q8TBB1 = target: LNX1_2, Q8TBB1
Chain of LNX1_2, Q8TBB1 (Q8TBB1 371-470): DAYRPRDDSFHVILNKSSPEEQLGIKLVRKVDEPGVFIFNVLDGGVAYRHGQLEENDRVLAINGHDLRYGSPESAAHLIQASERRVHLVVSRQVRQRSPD

IL16_4, Q14005 = target: IL16_4, Q14005
Chain of IL16_4, Q14005 (Q14005 1229-1329): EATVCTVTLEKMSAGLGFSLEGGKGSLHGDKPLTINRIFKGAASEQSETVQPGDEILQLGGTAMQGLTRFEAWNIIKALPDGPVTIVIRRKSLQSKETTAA

FRMPD4, Q14CM0 = target: FRMPD4, Q14CM0
Chain of FRMPD4, Q14CM0 (Q14CM0 67-160): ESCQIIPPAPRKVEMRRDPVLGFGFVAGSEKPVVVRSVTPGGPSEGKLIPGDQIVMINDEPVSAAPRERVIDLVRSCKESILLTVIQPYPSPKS

RADIL, Q96JH8 = target: T1, RADIL, Q96JH8
DLG4_3, P78352 = target: DLG4_3, P78352
Chain of DLG4_3, P78352 (P78352 306-403): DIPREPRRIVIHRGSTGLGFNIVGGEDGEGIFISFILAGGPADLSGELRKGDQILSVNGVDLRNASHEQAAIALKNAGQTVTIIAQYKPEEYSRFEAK

Inadl_6, Q8NI35 = target: Inadl_6, Q8NI35
Chain of Inadl_6, Q8NI35 (Q8NI35 1058-1167): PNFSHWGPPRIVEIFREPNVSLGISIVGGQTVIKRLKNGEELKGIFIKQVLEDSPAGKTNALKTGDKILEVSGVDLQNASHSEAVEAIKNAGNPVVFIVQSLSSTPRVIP

DLG4_2, P78352 = target: DLG4_2, P78352
Chain of DLG4_2, P78352 (P78352 155-259): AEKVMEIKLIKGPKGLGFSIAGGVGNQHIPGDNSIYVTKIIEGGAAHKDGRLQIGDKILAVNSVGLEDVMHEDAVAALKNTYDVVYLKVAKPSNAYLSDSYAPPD

GORASP2, Q9H8Y8 = target: GORASP2, Q9H8Y8
APBA2_2, Q99767 = target: T2, APBA2_2, Q99767
SHANK1, Q9Y566 = target: T3, SHANK1, Q9Y566
GRIP2_5, Q9C0E4 = target: GRIP2_5, Q9C0E4
Chain of GRIP2_5, Q9C0E4 (Q9C0E4 544-642): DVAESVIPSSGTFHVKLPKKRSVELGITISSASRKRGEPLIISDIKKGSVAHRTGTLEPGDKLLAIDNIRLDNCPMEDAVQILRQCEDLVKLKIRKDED

HTRA2, O43464 = target: HTRA2, O43464
Chain of HTRA2, O43464 (O43464 355-458): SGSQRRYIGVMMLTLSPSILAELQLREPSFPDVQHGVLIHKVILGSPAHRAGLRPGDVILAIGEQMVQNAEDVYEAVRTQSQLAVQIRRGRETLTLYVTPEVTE

LAP2, Q96RT1 = target: LAP2, Q96RT1
Chain of LAP2, Q96RT1 (Q96RT1 other isoform, or with tags, fused parts or gaps): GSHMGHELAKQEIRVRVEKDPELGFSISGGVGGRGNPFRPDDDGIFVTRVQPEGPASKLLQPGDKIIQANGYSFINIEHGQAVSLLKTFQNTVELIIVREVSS

HTRA1, Q92743 = target: HTRA1, Q92743
Chain of HTRA1, Q92743 (Q92743 360-477): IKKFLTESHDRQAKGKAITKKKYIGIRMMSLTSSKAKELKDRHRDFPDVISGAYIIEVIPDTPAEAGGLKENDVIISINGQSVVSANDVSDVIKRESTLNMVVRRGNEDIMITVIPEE

PDZD2_2, O15018 = target: T4, PDZD2_2, O15018
MAST1, Q9Y2H9 = target: MAST1, Q9Y2H9
Chain of MAST1, Q9Y2H9 (Q9Y2H9 962-1065): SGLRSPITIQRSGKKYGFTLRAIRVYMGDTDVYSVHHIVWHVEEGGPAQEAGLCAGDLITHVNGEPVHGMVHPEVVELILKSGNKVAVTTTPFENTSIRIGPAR

IL16_1, Q14005 = target: IL16_1, Q14005
Chain of IL16_1, Q14005 (Q14005 210-306): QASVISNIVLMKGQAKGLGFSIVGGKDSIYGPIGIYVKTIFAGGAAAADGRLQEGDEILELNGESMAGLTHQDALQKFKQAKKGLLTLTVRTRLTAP

Inadl_10, Q8NI35 = target: Inadl_10, Q8NI35
Chain of Inadl_10, Q8NI35 (Q8NI35 1673-1763): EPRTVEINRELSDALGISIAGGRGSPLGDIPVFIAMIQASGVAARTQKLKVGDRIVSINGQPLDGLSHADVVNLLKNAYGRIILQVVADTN

MAGI2_4, Q86UL8 = target: MAGI2_4, Q86UL8
Chain of MAGI2_4, Q86UL8 (Q86UL8 772-865): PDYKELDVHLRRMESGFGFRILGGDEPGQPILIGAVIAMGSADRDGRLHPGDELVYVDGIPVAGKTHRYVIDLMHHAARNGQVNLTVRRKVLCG

ARHGAP21, Q5T5U3 = target: T5, ARHGAP21, Q5T5U3
GRASP, Q7Z6J2 = target: GRASP, Q7Z6J2
Chain of GRASP, Q7Z6J2 (Q7Z6J2 96-193): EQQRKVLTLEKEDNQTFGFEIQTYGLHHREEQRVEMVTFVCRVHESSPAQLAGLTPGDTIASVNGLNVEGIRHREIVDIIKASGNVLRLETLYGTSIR

DLG2_3, Q15700 = target: DLG2_3, Q15700
MAST2, Q6P0Q8 = target: MAST2, Q6P0Q8
Chain of MAST2, Q6P0Q8 (Q6P0Q8 1099-1202): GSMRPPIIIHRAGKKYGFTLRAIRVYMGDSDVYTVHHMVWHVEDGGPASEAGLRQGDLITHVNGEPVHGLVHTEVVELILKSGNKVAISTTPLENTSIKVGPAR

DLG4_1, P78352 = target: DLG4_1, P78352
Chain of DLG4_1, P78352 (P78352 62-152): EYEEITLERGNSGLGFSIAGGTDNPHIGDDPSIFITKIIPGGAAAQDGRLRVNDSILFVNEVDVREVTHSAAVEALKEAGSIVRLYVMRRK

MAGI3_2, Q5TCQ9 = target: MAGI3_2, Q5TCQ9
Chain of MAGI3_2, Q5TCQ9 (Q5TCQ9 398-503): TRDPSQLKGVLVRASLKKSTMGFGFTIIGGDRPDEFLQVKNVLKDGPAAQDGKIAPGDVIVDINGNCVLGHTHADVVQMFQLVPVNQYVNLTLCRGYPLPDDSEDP

SNTB1, Q13884 = target: T6, SNTB1, Q13884
LNX1_3, Q8TBB1 = target: LNX1_3, Q8TBB1
Chain of LNX1_3, Q8TBB1 (Q8TBB1 500-596): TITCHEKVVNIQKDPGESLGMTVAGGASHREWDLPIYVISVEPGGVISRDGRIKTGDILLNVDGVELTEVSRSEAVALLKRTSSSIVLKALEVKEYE

Binder | pKd (DLG1_2, Q12959) | pKd (MAGI2_5, Q86UL8) | pKd (Inadl_1, Q8NI35) | pKd (PDLIM1, O00151) | pKd (GIPC2, Q8TF65) | pKd (GRID2IP_2, A4D2P6) | pKd (LNX1_2, Q8TBB1) | pKd (IL16_4, Q14005) | pKd (FRMPD4, Q14CM0) | pKd (RADIL, Q96JH8) | pKd (DLG4_3, P78352) | pKd (Inadl_6, Q8NI35) | pKd (DLG4_2, P78352) | pKd (GORASP2, Q9H8Y8) | pKd (APBA2_2, Q99767) | pKd (SHANK1, Q9Y566) | pKd (GRIP2_5, Q9C0E4) | pKd (HTRA2, O43464) | pKd (LAP2, Q96RT1) | pKd (HTRA1, Q92743) | other results
KPGKGSETVV [FZD4, Q9ULV1] | 5.12 | 3.55 | below the threshold | below the threshold | 3.57 | below the threshold | 3.56 | below the threshold | below the threshold | 3.97 | 3.79 | 3.56 | 4.92 | 4.24 | below the threshold | below the threshold | below the threshold | below the threshold | below the threshold | 4.3 | pKd (PDZD2_2, O15018): 3.76; pKd (MAST1, Q9Y2H9): 4.4; pKd (IL16_1, Q14005): 3.61; pKd (Inadl_10, Q8NI35): below the threshold; pKd (MAGI2_4, Q86UL8): 4.48; pKd (ARHGAP21, Q5T5U3): 3.93; pKd (GRASP, Q7Z6J2): below the threshold; pKd (DLG2_3, Q15700): 4.01; pKd (MAST2, Q6P0Q8): 4.91; pKd (DLG4_1, P78352): 4.85; pKd (MAGI3_2, Q5TCQ9): 5.64; pKd (SNTB1, Q13884): 4.78; pKd (LNX1_3, Q8TBB1): below the threshold
AAVENKVTDL [PLXNB1, O43157] | 4.45 | below the threshold | below the threshold | 3.77 | below the threshold | 4.56 | below the threshold | below the threshold | 3.68 | below the threshold | below the threshold | 4.14 | 4.2 | 3.9 | below the threshold | below the threshold | below the threshold | below the threshold | 3.54 | 4.12 | pKd (PDZD2_2, O15018): 4.65; pKd (MAST1, Q9Y2H9): 4.67; pKd (IL16_1, Q14005): below the threshold; pKd (Inadl_10, Q8NI35): below the threshold; pKd (MAGI2_4, Q86UL8): below the threshold; pKd (ARHGAP21, Q5T5U3): 4.07; pKd (GRASP, Q7Z6J2): 3.93; pKd (DLG2_3, Q15700): below the threshold; pKd (MAST2, Q6P0Q8): 5.61; pKd (DLG4_1, P78352): 3.68; pKd (MAGI3_2, Q5TCQ9): below the threshold; pKd (SNTB1, Q13884): 4.63; pKd (LNX1_3, Q8TBB1): below the threshold
PYPTADHMLA [JUP, P14923] | 3.6 | below the threshold | below the threshold | below the threshold | below the threshold | below the threshold | below the threshold | below the threshold | below the threshold | below the threshold | below the threshold | below the threshold | below the threshold | below the threshold | below the threshold | below the threshold | below the threshold | below the threshold | below the threshold | 4.32 | pKd (PDZD2_2, O15018): below the threshold; pKd (MAST1, Q9Y2H9): below the threshold; pKd (IL16_1, Q14005): below the threshold; pKd (Inadl_10, Q8NI35): below the threshold; pKd (MAGI2_4, Q86UL8): below the threshold; pKd (ARHGAP21, Q5T5U3): below the threshold; pKd (GRASP, Q7Z6J2): below the threshold; pKd (DLG2_3, Q15700): 3.77; pKd (MAST2, Q6P0Q8): below the threshold; pKd (DLG4_1, P78352): below the threshold; pKd (MAGI3_2, Q5TCQ9): 3.73; pKd (SNTB1, Q13884): below the threshold; pKd (LNX1_3, Q8TBB1): below the threshold
TGLWKHETTV [ADGRA3, Q8IWK6] | 5.48 | 4.41 | below the threshold | below the threshold | 4.1 | below the threshold | 3.8 | below the threshold | below the threshold | 4.43 | 4.94 | below the threshold | 5.41 | 3.98 | below the threshold | below the threshold | below the threshold | below the threshold | 4.32 | 4.32 | pKd (PDZD2_2, O15018): 4.2; pKd (MAST1, Q9Y2H9): 4.78; pKd (IL16_1, Q14005): 4.09; pKd (Inadl_10, Q8NI35): below the threshold; pKd (MAGI2_4, Q86UL8): 4.77; pKd (ARHGAP21, Q5T5U3): 3.92; pKd (GRASP, Q7Z6J2): 3.55; pKd (DLG2_3, Q15700): 4.86; pKd (MAST2, Q6P0Q8): 5.47; pKd (DLG4_1, P78352): 5.21; pKd (MAGI3_2, Q5TCQ9): 5.48; pKd (SNTB1, Q13884): 4.84; pKd (LNX1_3, Q8TBB1): below the threshold
QKAPTKEFYA [SDC2, P34741] | 3.49 | below the threshold | below the threshold | below the threshold | below the threshold | below the threshold | 3.5 | below the threshold | 3.7 | 3.51 | below the threshold | below the threshold | below the threshold | 3.93 | below the threshold | 3.53 | below the threshold | below the threshold | below the threshold | 4.47 | pKd (PDZD2_2, O15018): below the threshold; pKd (MAST1, Q9Y2H9): below the threshold; pKd (IL16_1, Q14005): below the threshold; pKd (Inadl_10, Q8NI35): below the threshold; pKd (MAGI2_4, Q86UL8): below the threshold; pKd (ARHGAP21, Q5T5U3): below the threshold; pKd (GRASP, Q7Z6J2): below the threshold; pKd (DLG2_3, Q15700): 3.83; pKd (MAST2, Q6P0Q8): 3.82; pKd (DLG4_1, P78352): below the threshold; pKd (MAGI3_2, Q5TCQ9): below the threshold; pKd (SNTB1, Q13884): below the threshold; pKd (LNX1_3, Q8TBB1): below the threshold
